Assay results taken from PMC4460818.

Biological target: His-NDR1^3E (human) (UniProt Q15208)
Sequence (Q15208 other isoform, or with tags, fused parts or gaps): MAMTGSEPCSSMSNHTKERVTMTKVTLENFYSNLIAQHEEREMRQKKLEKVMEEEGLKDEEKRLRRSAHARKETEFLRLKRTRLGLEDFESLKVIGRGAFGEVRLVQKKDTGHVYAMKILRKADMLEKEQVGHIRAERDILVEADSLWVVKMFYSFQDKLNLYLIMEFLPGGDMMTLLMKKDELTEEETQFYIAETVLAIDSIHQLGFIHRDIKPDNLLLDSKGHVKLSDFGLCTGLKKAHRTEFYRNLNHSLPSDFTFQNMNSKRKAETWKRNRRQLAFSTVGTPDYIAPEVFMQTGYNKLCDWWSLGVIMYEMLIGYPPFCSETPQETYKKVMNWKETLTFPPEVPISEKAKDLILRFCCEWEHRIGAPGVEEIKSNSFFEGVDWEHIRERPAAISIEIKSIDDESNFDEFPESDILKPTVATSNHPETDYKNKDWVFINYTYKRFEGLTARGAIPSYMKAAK

B1: 10-mer NDR1 substrate peptide (peptide)
peptide: KKRNRRLSVA
For B1, the Km toward the 10-mer substrate peptide SP in a fluorimetric kinase assay, relative to wild type NDR1 was 1.7 fold.
